Earlier results, collected in paper PMC12759081.
pKd: −log10 of the molar value.

Molecular target: PDS5B (Homo sapiens) (UniProt Q9NTI5)
Test: ITC

Sequence of Wapl (Q7Z5K2 whole entry): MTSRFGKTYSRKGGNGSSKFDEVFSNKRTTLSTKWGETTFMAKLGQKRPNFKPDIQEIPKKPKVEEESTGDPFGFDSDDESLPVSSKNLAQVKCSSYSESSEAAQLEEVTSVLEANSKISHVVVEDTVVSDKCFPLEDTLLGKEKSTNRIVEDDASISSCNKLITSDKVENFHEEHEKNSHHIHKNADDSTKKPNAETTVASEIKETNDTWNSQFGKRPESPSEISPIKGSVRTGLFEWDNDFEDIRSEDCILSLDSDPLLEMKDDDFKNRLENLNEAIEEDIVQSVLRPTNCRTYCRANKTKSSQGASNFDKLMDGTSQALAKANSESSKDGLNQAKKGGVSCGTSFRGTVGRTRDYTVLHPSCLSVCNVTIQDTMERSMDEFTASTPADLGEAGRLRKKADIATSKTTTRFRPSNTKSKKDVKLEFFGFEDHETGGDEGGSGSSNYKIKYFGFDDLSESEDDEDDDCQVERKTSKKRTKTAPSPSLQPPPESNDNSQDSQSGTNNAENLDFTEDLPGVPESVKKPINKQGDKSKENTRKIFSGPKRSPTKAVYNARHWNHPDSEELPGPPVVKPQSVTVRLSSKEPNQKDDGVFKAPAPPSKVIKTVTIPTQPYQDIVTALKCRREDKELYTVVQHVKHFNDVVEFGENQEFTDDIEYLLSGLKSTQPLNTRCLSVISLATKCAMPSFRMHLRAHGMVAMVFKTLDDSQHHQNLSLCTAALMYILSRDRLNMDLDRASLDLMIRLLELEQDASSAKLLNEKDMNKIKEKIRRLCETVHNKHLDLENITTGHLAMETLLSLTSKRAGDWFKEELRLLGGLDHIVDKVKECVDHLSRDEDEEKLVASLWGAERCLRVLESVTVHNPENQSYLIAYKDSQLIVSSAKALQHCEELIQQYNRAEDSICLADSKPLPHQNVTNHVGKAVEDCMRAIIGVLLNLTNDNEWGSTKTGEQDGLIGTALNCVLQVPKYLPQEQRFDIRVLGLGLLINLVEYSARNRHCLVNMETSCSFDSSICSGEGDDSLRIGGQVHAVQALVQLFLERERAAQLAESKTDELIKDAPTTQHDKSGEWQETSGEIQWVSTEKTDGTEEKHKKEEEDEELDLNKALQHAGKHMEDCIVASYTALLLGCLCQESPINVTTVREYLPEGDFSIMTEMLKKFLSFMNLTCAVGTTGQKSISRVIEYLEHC
Sequence of PDS5B (Homo sapiens) (Q9NTI5 whole entry): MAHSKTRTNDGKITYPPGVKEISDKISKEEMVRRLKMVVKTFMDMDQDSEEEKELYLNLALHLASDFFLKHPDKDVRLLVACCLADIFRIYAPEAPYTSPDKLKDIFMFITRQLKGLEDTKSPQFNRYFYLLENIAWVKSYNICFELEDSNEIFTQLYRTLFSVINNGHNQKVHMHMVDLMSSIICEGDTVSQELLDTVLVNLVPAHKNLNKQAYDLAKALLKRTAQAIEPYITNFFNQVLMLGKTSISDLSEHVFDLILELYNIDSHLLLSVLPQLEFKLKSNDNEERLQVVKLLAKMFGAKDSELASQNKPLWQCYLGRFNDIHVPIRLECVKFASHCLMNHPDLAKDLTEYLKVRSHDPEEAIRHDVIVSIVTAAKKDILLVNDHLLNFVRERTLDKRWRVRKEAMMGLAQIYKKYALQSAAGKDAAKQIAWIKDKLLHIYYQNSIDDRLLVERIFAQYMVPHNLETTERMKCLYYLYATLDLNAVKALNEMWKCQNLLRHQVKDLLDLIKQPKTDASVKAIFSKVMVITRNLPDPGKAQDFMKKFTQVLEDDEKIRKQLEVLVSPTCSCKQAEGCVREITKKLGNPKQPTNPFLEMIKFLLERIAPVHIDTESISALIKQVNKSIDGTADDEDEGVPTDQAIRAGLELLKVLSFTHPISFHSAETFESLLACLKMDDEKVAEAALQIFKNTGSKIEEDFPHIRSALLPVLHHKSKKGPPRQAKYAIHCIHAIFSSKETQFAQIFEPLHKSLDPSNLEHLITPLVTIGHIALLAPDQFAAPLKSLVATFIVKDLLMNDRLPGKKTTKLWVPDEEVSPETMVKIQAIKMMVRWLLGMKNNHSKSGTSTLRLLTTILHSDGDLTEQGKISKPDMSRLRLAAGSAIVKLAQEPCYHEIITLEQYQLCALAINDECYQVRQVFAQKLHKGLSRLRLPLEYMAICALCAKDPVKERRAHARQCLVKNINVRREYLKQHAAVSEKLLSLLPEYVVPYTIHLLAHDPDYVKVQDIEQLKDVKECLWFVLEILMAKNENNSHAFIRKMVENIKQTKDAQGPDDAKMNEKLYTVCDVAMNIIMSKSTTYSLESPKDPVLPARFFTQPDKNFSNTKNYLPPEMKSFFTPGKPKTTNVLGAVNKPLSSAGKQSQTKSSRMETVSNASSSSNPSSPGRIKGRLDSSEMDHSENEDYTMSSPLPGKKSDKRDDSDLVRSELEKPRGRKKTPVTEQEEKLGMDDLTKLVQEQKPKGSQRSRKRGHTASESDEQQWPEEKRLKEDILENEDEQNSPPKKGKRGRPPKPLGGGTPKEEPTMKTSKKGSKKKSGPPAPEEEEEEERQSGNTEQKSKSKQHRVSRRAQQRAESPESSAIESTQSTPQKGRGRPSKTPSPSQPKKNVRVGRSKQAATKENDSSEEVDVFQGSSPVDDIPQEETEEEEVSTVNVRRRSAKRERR

pKd: 5.22
Substance: Wapl (from UniProt Q7Z5K2)
